The supplement of paper PMC10065799, “High-throughput profiling of sequence recognition by tyrosine kinases and SH2 domains using bacterial peptide display” (eLife, 2023)

system: Fer (mouse); test: phosphorylation enrichment, bacterial display (enrichment ratio); higher = better substrate or ligand; peptides without Tyr show the background
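Also: 11-residue human phosphosite peptides and single-mutation variants displayed on the E. coli surface, counted by deep sequencing, each peptide's frequency after selection divided by its frequency in the unselected input library; frequency after pTyr selection over input frequency; kinase dosed for 20-30% of maximal phosphorylation in three min.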

Sequence | phosphorylation enrichment
QGGRRYMMIVD [GAA_Y438] | 0.692
CCKNRYDKDKP [THAP1_Y14_G9C] | 0.345
RPASQYPHQVP [ADAM12_Y895_P893S] | 0.464
KMKGDYYCYLA [YWHAG_Y130_R132C] | 0.895
HESEIYGKVCY [CSRP3_Y57_C58G] | 8.63
EESREYDRLYE [PIK3R1_Y463_K459E] | 0.641
WNRDKYAATTT [TRIM39_Y439_G436R] | 0.37
CEAMEYLESKQ [BTK_Y511] | 0.788
VLAAQYTTVGR [SGSH_Y240_D235V] | 0.394
PLAVPYLDKPP [JMJD7_Y31] | 0.614
IPKTWYSAEQF [CD207_Y217] | 0.448
NTYEKYLGEEY [TF_Y669] | 0.523
RAIGFYSATSK [FAM120A_Y328_YF] | 0.911
SIIKDYFHRGT [GATM_Y203_A208T] | 0.465
RIVRKYKKVRF [F8_Y442_G439V] | 0.93
GLRFGYGVLGG [KRTAP20-2_Y15_YF] | 0.387
SVTFTYSPALN [TP53_Y126_C124Y_YF] | 0.465

Sequence | phosphorylation enrichment
IRCQGYSHRIL [MYO3B_Y993_R990C] | 0.47
IDSTPYGQWFE [RPS8_Y109_R110G_YF] | 0.712
SVQIVYKPVDL [MAPT_Y627] | 0.467
GSPPPYRRRKR [MBD1_Y403] | 0.608
EEGNPYFSSTR [MCCC2_Y520_A524T_YF] | 0.413
PPGRSYSPYDY [TNS1_Y793] | 1.11
VHNLNYYKKTT [FGFR3_Y647_D646N] | 0.32
APGDAYGDAGY [SYP_Y250] | 0.512
GDYLSYREFHS [ERBIN_Y1107] | 0.414
GGCQEYTGAPF [NAXD_Y85_YF] | 0.587
HSDFQYSQRSQ [PKP2_Y168_YF] | 0.733
GAALAYGLDKS [HSPA9_Y230_A225G] | 0.411
GVFSRYFTTFD [CLCA1_Y661_YF] | 0.433
TSPKSYPSQKH [CAP2_Y316] | 0.45
PLDAEYFTLQI [TP53_Y327_G325A] | 0.883
VNYGAYINDFN [GLB1_Y488_K493N] | 0.462

molecular target: Fyn (UniProt P06241); test: as above
Sequence (P06241 whole entry, looked up): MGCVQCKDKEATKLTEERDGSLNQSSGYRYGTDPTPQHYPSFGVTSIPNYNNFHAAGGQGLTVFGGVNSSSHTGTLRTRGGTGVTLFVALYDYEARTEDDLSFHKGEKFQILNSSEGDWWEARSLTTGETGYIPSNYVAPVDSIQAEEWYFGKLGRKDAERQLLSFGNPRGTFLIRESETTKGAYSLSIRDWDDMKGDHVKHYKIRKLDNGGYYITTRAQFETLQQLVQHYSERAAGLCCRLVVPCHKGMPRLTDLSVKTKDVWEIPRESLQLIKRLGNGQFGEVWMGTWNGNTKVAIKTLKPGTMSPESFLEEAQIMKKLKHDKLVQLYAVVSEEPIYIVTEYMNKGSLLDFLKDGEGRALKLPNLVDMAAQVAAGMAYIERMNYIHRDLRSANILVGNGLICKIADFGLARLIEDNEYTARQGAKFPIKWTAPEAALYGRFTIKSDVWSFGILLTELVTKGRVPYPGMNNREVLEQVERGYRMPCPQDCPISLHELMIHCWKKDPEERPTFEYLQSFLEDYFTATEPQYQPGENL

Sequence | phosphorylation enrichment
QGGRRYMMIVD [GAA_Y438] | 0.655
CCKNRYDKDKP [THAP1_Y14_G9C] | 0.33
RPASQYPHQVP [ADAM12_Y895_P893S] | 0.61
KMKGDYYCYLA [YWHAG_Y130_R132C] | 1.38
HESEIYGKVCY [CSRP3_Y57_C58G] | 8.66
EESREYDRLYE [PIK3R1_Y463_K459E] | 0.751
WNRDKYAATTT [TRIM39_Y439_G436R] | 0.358
CEAMEYLESKQ [BTK_Y511] | 0.557
VLAAQYTTVGR [SGSH_Y240_D235V] | 0.367
PLAVPYLDKPP [JMJD7_Y31] | 0.46
IPKTWYSAEQF [CD207_Y217] | 0.522
NTYEKYLGEEY [TF_Y669] | 0.974
RAIGFYSATSK [FAM120A_Y328_YF] | 0.685
SIIKDYFHRGT [GATM_Y203_A208T] | 0.433
RIVRKYKKVRF [F8_Y442_G439V] | 0.823
GLRFGYGVLGG [KRTAP20-2_Y15_YF] | 0.548
SVTFTYSPALN [TP53_Y126_C124Y_YF] | 0.424

Sequence | phosphorylation enrichment
IRCQGYSHRIL [MYO3B_Y993_R990C] | 0.493
IDSTPYGQWFE [RPS8_Y109_R110G_YF] | 3.54
SVQIVYKPVDL [MAPT_Y627] | 0.4
GSPPPYRRRKR [MBD1_Y403] | 0.535
EEGNPYFSSTR [MCCC2_Y520_A524T_YF] | 0.505
PPGRSYSPYDY [TNS1_Y793] | 2.82
VHNLNYYKKTT [FGFR3_Y647_D646N] | 0.435
APGDAYGDAGY [SYP_Y250] | 0.413
GDYLSYREFHS [ERBIN_Y1107] | 2.8
GGCQEYTGAPF [NAXD_Y85_YF] | 0.464
HSDFQYSQRSQ [PKP2_Y168_YF] | 0.844
GAALAYGLDKS [HSPA9_Y230_A225G] | 0.483
GVFSRYFTTFD [CLCA1_Y661_YF] | 0.438
TSPKSYPSQKH [CAP2_Y316] | 0.434
PLDAEYFTLQI [TP53_Y327_G325A] | 2.47
VNYGAYINDFN [GLB1_Y488_K493N] | 0.87

system: AncSZ; test: as above

Sequence | phosphorylation enrichment
QGGRRYMMIVD [GAA_Y438] | 0.606
CCKNRYDKDKP [THAP1_Y14_G9C] | 0.455
RPASQYPHQVP [ADAM12_Y895_P893S] | 0.533
KMKGDYYCYLA [YWHAG_Y130_R132C] | 2.32
HESEIYGKVCY [CSRP3_Y57_C58G] | 1.36
EESREYDRLYE [PIK3R1_Y463_K459E] | 1.42
WNRDKYAATTT [TRIM39_Y439_G436R] | 0.734
CEAMEYLESKQ [BTK_Y511] | 1.94
VLAAQYTTVGR [SGSH_Y240_D235V] | 0.551
PLAVPYLDKPP [JMJD7_Y31] | 0.825
IPKTWYSAEQF [CD207_Y217] | 0.855
NTYEKYLGEEY [TF_Y669] | 1.12
RAIGFYSATSK [FAM120A_Y328_YF] | 1.51
SIIKDYFHRGT [GATM_Y203_A208T] | 0.656
RIVRKYKKVRF [F8_Y442_G439V] | 0.964
GLRFGYGVLGG [KRTAP20-2_Y15_YF] | 0.742
SVTFTYSPALN [TP53_Y126_C124Y_YF] | 1.08

Sequence | phosphorylation enrichment
IRCQGYSHRIL [MYO3B_Y993_R990C] | 0.723
IDSTPYGQWFE [RPS8_Y109_R110G_YF] | 1.27
SVQIVYKPVDL [MAPT_Y627] | 1.17
GSPPPYRRRKR [MBD1_Y403] | 0.665
EEGNPYFSSTR [MCCC2_Y520_A524T_YF] | 0.865
PPGRSYSPYDY [TNS1_Y793] | 1.44
VHNLNYYKKTT [FGFR3_Y647_D646N] | 0.506
APGDAYGDAGY [SYP_Y250] | 0.891
GDYLSYREFHS [ERBIN_Y1107] | 2.1
GGCQEYTGAPF [NAXD_Y85_YF] | 1.17
HSDFQYSQRSQ [PKP2_Y168_YF] | 0.997
GAALAYGLDKS [HSPA9_Y230_A225G] | 0.529
GVFSRYFTTFD [CLCA1_Y661_YF] | 0.954
TSPKSYPSQKH [CAP2_Y316] | 0.613
PLDAEYFTLQI [TP53_Y327_G325A] | 2.57
VNYGAYINDFN [GLB1_Y488_K493N] | 1

system: c-Abl (mouse); test: as above

Sequence | phosphorylation enrichment
QGGRRYMMIVD [GAA_Y438] | 0.543
CCKNRYDKDKP [THAP1_Y14_G9C] | 0.381
RPASQYPHQVP [ADAM12_Y895_P893S] | 0.374
KMKGDYYCYLA [YWHAG_Y130_R132C] | 1.57
HESEIYGKVCY [CSRP3_Y57_C58G] | 2.81
EESREYDRLYE [PIK3R1_Y463_K459E] | 1.02
WNRDKYAATTT [TRIM39_Y439_G436R] | 0.542
CEAMEYLESKQ [BTK_Y511] | 1.36
VLAAQYTTVGR [SGSH_Y240_D235V] | 0.514
PLAVPYLDKPP [JMJD7_Y31] | 0.658
IPKTWYSAEQF [CD207_Y217] | 0.526
NTYEKYLGEEY [TF_Y669] | 0.935
RAIGFYSATSK [FAM120A_Y328_YF] | 1.26
SIIKDYFHRGT [GATM_Y203_A208T] | 0.514
RIVRKYKKVRF [F8_Y442_G439V] | 0.687
GLRFGYGVLGG [KRTAP20-2_Y15_YF] | 0.519
SVTFTYSPALN [TP53_Y126_C124Y_YF] | 0.675

Sequence | phosphorylation enrichment
IRCQGYSHRIL [MYO3B_Y993_R990C] | 0.493
IDSTPYGQWFE [RPS8_Y109_R110G_YF] | 0.657
SVQIVYKPVDL [MAPT_Y627] | 0.689
GSPPPYRRRKR [MBD1_Y403] | 0.55
EEGNPYFSSTR [MCCC2_Y520_A524T_YF] | 0.585
PPGRSYSPYDY [TNS1_Y793] | 0.664
VHNLNYYKKTT [FGFR3_Y647_D646N] | 0.671
APGDAYGDAGY [SYP_Y250] | 0.616
GDYLSYREFHS [ERBIN_Y1107] | 19
GGCQEYTGAPF [NAXD_Y85_YF] | 0.636
HSDFQYSQRSQ [PKP2_Y168_YF] | 0.942
GAALAYGLDKS [HSPA9_Y230_A225G] | 0.487
GVFSRYFTTFD [CLCA1_Y661_YF] | 0.679
TSPKSYPSQKH [CAP2_Y316] | 0.53
PLDAEYFTLQI [TP53_Y327_G325A] | 1.29
VNYGAYINDFN [GLB1_Y488_K493N] | 0.703
